The values that follow come from PMC11681983 (Biochemistry Research International, 2024).

Common to all, as to details: both partners purified
One test addresses T1, VEGF (UniProt P15692 1-395).
T1 construct: vascular endothelial growth factor (VEGF); Probably VEGF165 (surmised); also called vascular endothelial growth factor
In words: ELISA; direct binding ELISA to IL-17A or VEGF, measured in duplicate, n = 2; who was coated is not told. (ELISA stands for enzyme-linked immunosorbent assay.)

In test [1] the target is T2, IL-17A (human, UniProt Q16552).
T2 construct: IL-17A
The test can be described thus: SPR; Biacore, n = 3.

Test [2] addresses T2, IL-17A. The test can be described thus: ELISA; direct binding ELISA to IL-17A or VEGF, measured in duplicate, n = 2; who was coated is not told.
In test [3] the target is T2, IL-17A. The test can be described thus: ELISA; ELISA-based assay of blocking the interaction of IL-17A with IL-17RA, in duplicate, n = 3.

T2 sequence (Q16552 24-155): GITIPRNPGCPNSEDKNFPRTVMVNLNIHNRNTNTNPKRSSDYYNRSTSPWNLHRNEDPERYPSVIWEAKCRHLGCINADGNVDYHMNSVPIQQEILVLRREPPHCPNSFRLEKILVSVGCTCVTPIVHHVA
T1 sequence (P15692 whole entry): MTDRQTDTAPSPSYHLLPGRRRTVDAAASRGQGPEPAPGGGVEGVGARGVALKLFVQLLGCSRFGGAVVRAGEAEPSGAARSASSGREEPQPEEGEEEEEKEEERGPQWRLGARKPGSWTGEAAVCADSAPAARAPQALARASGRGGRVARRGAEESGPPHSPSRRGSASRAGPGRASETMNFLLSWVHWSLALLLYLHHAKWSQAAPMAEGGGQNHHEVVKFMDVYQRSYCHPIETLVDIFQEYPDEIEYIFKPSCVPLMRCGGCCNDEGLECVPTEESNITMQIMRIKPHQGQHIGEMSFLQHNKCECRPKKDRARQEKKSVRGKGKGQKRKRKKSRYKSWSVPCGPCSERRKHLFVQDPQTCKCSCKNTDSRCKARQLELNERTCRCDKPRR

B1: D2-Fc, a fusion protein with D2 fused to the N-terminus of an Fc (Fc fusion)
chain: SDTGRPFVEMYSEIPEIIHMTEGRELVIPCRVTSPNITVTLKKFPLDTLIPDGKRIIWDSRKGFIISNATYKEIGLLTCEATVNGHLYKTNYLTHRQTNTIID
modifications: Limits are not printed. VEGFR1 D2 is taken as S129-D231, the aflibercept / Flt1 D2 convention. The Fc carrier is omitted; two copies assume an Fc dimer. The printed clip site M464/Y465 (fusion …)
In the test with VEGF, B1 displayed an EC50 of 0.39 nM.

B2: bispecific fusion protein 17V05 (bispecific antibody, V domains shown)
VH: EVQLVESGGGLVQPGGSLRLSCAASGFTFSSFDMSWGRQAPGKRLEWVAFMSSGGSTYYPDSVKGRFTISRDNSKNTLYLQMNSLRAEDTAVYYCARGERYGSYWGQGTLVTVSS
VL: DIQMTQSPSSLSASVGDRVTITCKASDHINNWLAWYQQKPGKAPKLLISGATSLETGVPSRFSGSGSGTDYTLTISSLQPEDFATYYCQQYWSTPFTFGSGTKLEIK
notes: heavy chain of the clinical stage anti-IL-17A mAb 608 (Sunshine Guojian Pharmaceutical); linker, printed as (G4S) x 3; light chain of the anti-IL-17A mAb 608; Variant of 17V01 with M464A in D2; Two copies of D2, one at the C-terminus of each heavy chain of 608; also called bispecific anti-IL17/VEGF fusion trap; source: 293HEK cells, one-step purification with protein A chromatography (told of the …)
Molecule B2 yielded a Kd with IL-17A [1] of 0.0184 nM. For the same molecule, the EC50 with IL-17A [2] was 0.05 nM. This molecule came in with an IC50 in the test with IL-17A [3] of 2.77 nM.

As a reminder, the EC50 is the concentration that produces a half-maximal response. A lower EC50 goes with an effect from little substance. The Kd is the equilibrium constant for the complex coming apart. A lower Kd goes with tighter binding. A word on the IC50: it is the point on the concentration scale where inhibition reaches its midpoint. A low value points to inhibition by little substance.
